Target: β-tubulin, endogenous in HeLa cells (human (endogenous in HeLa)) (UniProt P07437)
Assay: native gel or EMSA; soluble native extracts of HeLa cells treated with 5 uM colchicine for 60 min (30 ug) on 6% non-denaturing PAGE, western blot with anti-TBCA; level of the complex relative to control cells (100%)

UniProt P07437, sequence (P07437 whole entry): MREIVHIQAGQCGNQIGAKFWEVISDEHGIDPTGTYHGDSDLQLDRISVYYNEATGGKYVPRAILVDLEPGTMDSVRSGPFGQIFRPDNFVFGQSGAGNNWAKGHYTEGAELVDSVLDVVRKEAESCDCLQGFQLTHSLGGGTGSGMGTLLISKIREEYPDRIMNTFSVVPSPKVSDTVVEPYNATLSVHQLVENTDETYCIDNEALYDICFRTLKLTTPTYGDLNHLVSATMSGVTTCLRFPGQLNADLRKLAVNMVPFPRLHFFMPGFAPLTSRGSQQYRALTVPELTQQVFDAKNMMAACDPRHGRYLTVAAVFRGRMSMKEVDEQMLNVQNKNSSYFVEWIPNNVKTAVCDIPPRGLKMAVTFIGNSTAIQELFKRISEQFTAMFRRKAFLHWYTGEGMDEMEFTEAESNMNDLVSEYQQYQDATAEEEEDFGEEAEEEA

level of the TBCA/β-tubulin complex, percent of control cells: 18%
B1: tubulin cofactor A (TBCA), endogenous in HeLa cells (natural protein)
chain: MADPRVRQIKIKTGVVKRLVKEKVMYEKEAKQQEEKIEKMRAEDGENYDIKKQAEILQESRMMIPDCQRRLEAAYLDLQRILENEKDLEEAEEYKEARLVLDSVKLEA

From paper PMC8100514
